B1: bacteriophage lambda gpNu3 scaffolding protein (natural protein, UniProt P03711-2 1-131, looked up)
chain: MTKETQSTTVSATASQADVTDVVPATEGENASAAQPDVNAQITAAVAAENSRIMGILNCEEAHGREEQARVLAETPGMTVKTARRILAAAPQSAQARSDTALDRLMQGAPAPLAAGNPASDAVNDLLNTPV
B2: bacteriophage lambda gpE major capsid protein (natural protein, UniProt P03713 1-341, looked up)
chain: MSMYTTAQLLAANEQKFKFDPLFLRLFFRESYPFTTEKVYLSQIPGLVNMALYVSPIVSGEVIRSRGGSTSEFTPGYVKPKHEVNPQMTLRRLPDEDPQNLADPAYRRRRIIMQNMRDEELAIAQVEEMQAVSAVLKGKYTMTGEAFDPVEVDMGRSEENNITQSGGTEWSKRDKSTYDPTDDIEAYALNASGVVNIIVFDPKGWALFRSFKAVKEKLDTRRGSNSELETAVKDLGKAVSYKGMYGDVAIVVYSGQYVENGVKKNFLPDNTMVLGNTQARGLRTYGCIQDADAQREGINASARYPKNWVTTGDPAREFTMIQSAPLMLLADPDEFVSVQLA

Tests used:
[1] = target: bacteriophage lambda gpNu3 scaffolding protein (bacteriophage lambda) (UniProt P03711); assay: AUC
[2] = target: B2; assay: SEC
SEC = target: the molecule itself; assay: SEC

bacteriophage lambda gpNu3 scaffolding protein (from UniProt P03711-2 1-131) (natural protein)
stoichiometry N [1]: 2

B1
binding result [2]: binds

B2
binding result (SEC): binds
